In US20260049134A1 (UNIVERSITY OF FLORIDA RESEARCH FOUNDATION, published 2026):

T1: SELL (L-Selectin)
T1 construct: coated protein in the ELISA; also called SELL-Fc-His (R&D Systems)
T1 chain: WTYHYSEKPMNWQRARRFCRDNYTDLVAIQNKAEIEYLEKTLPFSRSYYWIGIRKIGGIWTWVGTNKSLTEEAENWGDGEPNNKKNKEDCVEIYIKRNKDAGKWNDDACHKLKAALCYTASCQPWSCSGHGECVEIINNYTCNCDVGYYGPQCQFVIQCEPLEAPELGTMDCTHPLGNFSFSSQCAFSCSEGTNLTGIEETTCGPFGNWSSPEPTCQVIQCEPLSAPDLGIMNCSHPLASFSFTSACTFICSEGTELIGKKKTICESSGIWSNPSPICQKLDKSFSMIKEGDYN

T2: GARS-His (Sino Biological) (human, UniProt P41250 37-739, limits assumed)
T2 construct: Bought; also called GARS1; glycyl-tRNA synthetase; not shown: His tag of the bought protein
T2 sequence: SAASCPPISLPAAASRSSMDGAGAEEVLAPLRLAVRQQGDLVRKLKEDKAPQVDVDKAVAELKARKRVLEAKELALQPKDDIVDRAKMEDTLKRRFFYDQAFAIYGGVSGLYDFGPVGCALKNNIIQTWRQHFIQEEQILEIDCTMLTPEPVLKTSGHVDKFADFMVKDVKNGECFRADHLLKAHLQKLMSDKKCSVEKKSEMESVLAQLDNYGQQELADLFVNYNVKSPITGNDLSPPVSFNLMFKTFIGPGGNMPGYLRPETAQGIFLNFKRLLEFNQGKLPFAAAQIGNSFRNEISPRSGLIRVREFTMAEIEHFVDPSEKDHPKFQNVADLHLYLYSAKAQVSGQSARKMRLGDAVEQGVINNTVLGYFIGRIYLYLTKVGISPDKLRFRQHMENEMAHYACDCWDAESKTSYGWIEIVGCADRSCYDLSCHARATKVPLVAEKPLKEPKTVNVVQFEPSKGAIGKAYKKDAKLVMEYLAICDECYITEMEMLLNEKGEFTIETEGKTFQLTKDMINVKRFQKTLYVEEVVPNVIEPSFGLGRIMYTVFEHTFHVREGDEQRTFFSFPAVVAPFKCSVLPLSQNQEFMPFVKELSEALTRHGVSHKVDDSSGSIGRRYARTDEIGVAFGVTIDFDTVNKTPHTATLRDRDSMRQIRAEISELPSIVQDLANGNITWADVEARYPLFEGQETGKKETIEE

T3: CADM1, endogenous in H929 multiple myeloma cells (human, UniProt Q9BY67 45-442)
T3 construct: Native protein on H929 cells (flow cytometry, siRNA knockdown) and in H929 lysates (IP/MS); RPMI-8226 cells were used for sorting with HW-97; also called IGSF4A
T3 sequence: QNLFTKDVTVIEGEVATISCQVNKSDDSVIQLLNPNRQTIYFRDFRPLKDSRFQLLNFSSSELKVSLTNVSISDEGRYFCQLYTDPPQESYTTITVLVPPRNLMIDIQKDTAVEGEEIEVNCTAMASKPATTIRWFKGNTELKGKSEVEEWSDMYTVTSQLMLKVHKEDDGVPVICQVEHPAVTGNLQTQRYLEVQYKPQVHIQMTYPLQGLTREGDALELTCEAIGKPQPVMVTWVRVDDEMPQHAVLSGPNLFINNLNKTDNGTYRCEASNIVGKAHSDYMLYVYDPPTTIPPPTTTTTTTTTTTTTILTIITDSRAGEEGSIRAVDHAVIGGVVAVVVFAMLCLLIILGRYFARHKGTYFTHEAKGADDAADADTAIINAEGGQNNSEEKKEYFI


What was measured:
[1] = molecular target: T4, PTPRG, endogenous in H929 multiple myeloma cells (human, UniProt P23470 20-1445); experiment: flow cytometry, H929 + PTPRG siRNA (target knocked down); None 490
T4 construct: Native protein on H929 cells (flow cytometry, siRNA knockdown) and in H929 lysates (IP/MS); also called phosphatase receptor type γ

SELL (L-Selectin) = molecular target: T1, SELL (L-Selectin); experiment: ELISA on coated SELL-Fc-His
Method: (§1) Recombinant purified ECDs (50-150 ng) of each putative target protein were coated, incubated with 150 ng of the indicated primary antibody, and binding was detected using a peroxidase-conjugated anti-human Fab secondary antibody. Heatmap represents averages of technical triplicates. (8B) Target validation via siRNA knockdown. H929 cells were transfected with siRNA pools targeting the putative antibody targets ICAM1, CADM1, and PTPRG. Cells were then subjected to cognate IgG binding analysis via flow cytometry. (NT, non-targeting siRNA).
(§2) ELISA ELISA was conducted as described previously. Briefly, 50-150 ng of antigen was coated overnight in half-area 96-well plates at 4° C., blocked with 3% BSA at 37° C. for 1 h, and 150 ng of chimeric rabbit/human IgG1 was added, incubating for 2 h at 37° C. […] After incubating at 37° C. for 15 min-1 h (depending on intensity of controls), data were acquired using a SpectraMax M5 plate reader (Molecular Devices).

[2] = molecular target: T2, GARS-His (Sino Biological); experiment: ELISA on coated GARS-His
Method: as §1, §2

[3] = molecular target: T4, PTPRG, endogenous in H929 multiple …; experiment: flow cytometry, H929 + ICAM1 siRNA; None 1.06
[4] = molecular target: T3, CADM1, endogenous in H929 multiple …; experiment: flow cytometry, H929 + NT Green siRNA; None 416
[5] = molecular target: T3, CADM1, endogenous in H929 multiple …; experiment: flow cytometry, H929 + vehicle; None 2.74

T4 sequence (P23470 20-1445 limits assumed): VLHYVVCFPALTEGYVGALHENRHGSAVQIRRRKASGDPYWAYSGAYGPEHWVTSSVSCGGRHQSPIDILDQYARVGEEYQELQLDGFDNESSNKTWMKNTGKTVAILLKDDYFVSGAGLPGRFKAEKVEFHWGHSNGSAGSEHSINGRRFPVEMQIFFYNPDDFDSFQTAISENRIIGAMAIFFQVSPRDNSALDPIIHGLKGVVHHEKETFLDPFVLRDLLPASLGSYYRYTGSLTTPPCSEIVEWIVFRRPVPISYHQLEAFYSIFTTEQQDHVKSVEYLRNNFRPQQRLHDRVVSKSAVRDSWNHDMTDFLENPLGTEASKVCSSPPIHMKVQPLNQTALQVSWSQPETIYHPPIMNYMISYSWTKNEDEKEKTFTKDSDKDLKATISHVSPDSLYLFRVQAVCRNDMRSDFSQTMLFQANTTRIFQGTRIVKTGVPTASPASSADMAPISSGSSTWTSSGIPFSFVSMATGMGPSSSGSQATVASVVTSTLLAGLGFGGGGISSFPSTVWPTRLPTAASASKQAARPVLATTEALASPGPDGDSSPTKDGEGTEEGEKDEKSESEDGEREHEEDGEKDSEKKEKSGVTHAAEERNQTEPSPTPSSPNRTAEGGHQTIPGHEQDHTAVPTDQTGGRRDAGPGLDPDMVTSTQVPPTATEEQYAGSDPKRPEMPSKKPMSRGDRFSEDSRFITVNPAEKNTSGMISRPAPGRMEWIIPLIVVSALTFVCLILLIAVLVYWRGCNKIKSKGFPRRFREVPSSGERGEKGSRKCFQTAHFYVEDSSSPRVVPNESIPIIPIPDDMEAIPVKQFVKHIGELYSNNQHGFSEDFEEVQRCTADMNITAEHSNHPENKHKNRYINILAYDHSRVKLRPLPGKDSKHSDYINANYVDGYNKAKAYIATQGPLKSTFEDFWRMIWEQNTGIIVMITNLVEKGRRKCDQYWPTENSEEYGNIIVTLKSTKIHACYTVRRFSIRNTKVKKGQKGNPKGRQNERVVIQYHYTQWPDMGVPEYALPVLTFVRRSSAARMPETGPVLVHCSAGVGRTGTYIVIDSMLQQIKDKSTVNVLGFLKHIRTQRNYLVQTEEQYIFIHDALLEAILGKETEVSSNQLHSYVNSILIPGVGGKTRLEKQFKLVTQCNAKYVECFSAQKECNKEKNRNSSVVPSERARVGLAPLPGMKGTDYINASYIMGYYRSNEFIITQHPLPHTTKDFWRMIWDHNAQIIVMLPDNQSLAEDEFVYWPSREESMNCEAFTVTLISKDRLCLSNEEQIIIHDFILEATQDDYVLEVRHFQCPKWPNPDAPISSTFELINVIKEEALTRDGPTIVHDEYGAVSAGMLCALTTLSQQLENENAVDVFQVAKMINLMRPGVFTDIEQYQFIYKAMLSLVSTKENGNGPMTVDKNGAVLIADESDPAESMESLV

mAb binding (MFI) [1] | Cells stained (%) [3] | mAb binding (MFI) [4] | Cells stained (%) [5] | Binder | binding result (SELL (L-Selectin)) | binding result [2]
– | – | 9600 | 98.4% | HW-97 chimeric rabbit-human IgG1 LA/LA/PG (antibody, V domains shown, Fc-silenced (L234A/L235A/P329G) IgG1, lambda; Alexa Fluor 647-labeled in single-step flow cytometry; Prototype of cluster C-97) VH: QKQLVESGGRLVTPGTPLTLTCTVTGIDLSSHGMSWVRQAPGKGLEWIGVIYPSGSTWYASWARGRFTISKTSTTVDLKMTSLTTEDTATHFCARGDVGGADNNIWGPGTLVTVSS VL: SFVLTQPASVQVDLGQTVSLTCTAETLSRSYASWYQQKPGQAPVLLIYRDTSRPSGVPDRFSGSSSGNTATLTISGAQAGDEADYYCATSDGSGSSYQYVFGGGTQLTVTG | no binding (tested: 150 ng IgG1 per well) | –
840 | 97.4% | – | – | HW-70 chimeric rabbit-human IgG1 LA/LA/PG (antibody, V domains shown, Fc-silenced (L234A/L235A/P329G) IgG1, lambda; Alexa Fluor 647-labeled in single-step flow cytometry; Cluster C-1) VH: QSLEESGGRLVTPGTPLTLTCTVSGFSLSSNAMSWVRQAPGKGLEWIGTIDGYGYTYYASWAKGRFTVSKTSTTVDLKITSPTTEDTATYFCAREIYLGSNFWGPGTLVTISS VL: SFVLTQPASVQVNLGQTVSLTCTADTLSRRYASWYQQKPGQAPVLLIYRDTSRPSGVPDRFSGSSSGNTATLTISGAQAGDEADYYCATADGSGSSYQFVFGGGTQLTVTG | no binding (tested: 150 ng IgG1 per well) | no binding (tested: 150 ng IgG1 per well)
839 | 97.2% | – | – | HW-25 chimeric rabbit-human IgG1 LA/LA/PG (antibody, V domains shown, Fc-silenced (L234A/L235A/P329G) IgG1, lambda; Alexa Fluor 647-labeled in single-step flow cytometry; Cluster C-1) VH: QSLEESGGRLVTPGTPLTLTCTVSGFSLSSYAMGWVRQAPGKGLEWIGIIDSRGSTYYATWAKGRFTISKTSTTVDLKITSPTTEDTATYFCAREDSYYYDSFNLWGPGTLVTVSS VL: SFVLTQPASVQVNLGQTVSLTCTADTLSRRYASWYQQKPGQAPVLLIYRDTSRPSGVPDRFSGSSSGNTATLTISGAQAGDEADYYCATSDGSGSSYQCVFGGGTQLTVTG | no binding (tested: 150 ng IgG1 per well) | no binding (tested: 150 ng IgG1 per well)

Second part, the binder before the results:

Binder | mAb binding (MFI) [1] | Cells stained (%) [3] | mAb binding (MFI) [4] | Cells stained (%) [5] | binding result (SELL (L-Selectin)) | binding result [2]
HW-42 chimeric rabbit-human IgG1 LA/LA/PG (antibody, V domains shown, Fc-silenced (L234A/L235A/P329G) IgG1, lambda; Alexa Fluor 647-labeled in single-step flow cytometry; Cluster C-1) VH: QSVKESEGGLFKPADTLTLTCTVSGFSLSSNEISWVRQAPGEGLEYIGIIDTGGRAYYAVWARSRSTITRNTNLNTVTLKMTSLTAADTATYFCARGGVDTEWYAFSSWGPGTLVTVPS VL: SFVLTQPASVQVNLGQTVSLTCTADTLSRRYASWYQQKPGQAPVLLIFRDTSRPSGVPDRFSGSSSGDTATLTISGAQAGDEADYYCATSDGSGSNYQYVFGGGTQLTVTG | 649 | 96.9% | – | – | no binding (tested: 150 ng IgG1 per well) | no binding (tested: 150 ng IgG1 per well)
HW-113 chimeric rabbit-human IgG1 LA/LA/PG (antibody, V domains shown, Fc-silenced (L234A/L235A/P329G) IgG1, lambda; Alexa Fluor 647-labeled in single-step flow cytometry) VH: QKQLVESGGGLVQPGGSLTLTCTVSGFSLNKYYMGWFRQAPGKGLEWIGVISRSGDTYYSSWAKGRFTISKASTTVDLRITSPTTEDTATYFCARDASSPGFHGDRLDLWGQGTLVTVSS VL: SFVLTQPASVQVNLGQTVSLTCTADTLSRSYASWYQQKPGQAPVLLIYRDTSRPSGVPDRFSGSSSGNTATLTISGAQAGDEADYYCATSDGIGSNYLWVFGGGTQLTVTG | – | – | – | – | no binding (tested: 150 ng IgG1 per well) | –
HW-17 chimeric rabbit-human IgG1 LA/LA/PG (antibody, V domains shown, Fc-silenced (L234A/L235A/P329G) IgG1, lambda; Alexa Fluor 647-labeled in single-step flow cytometry; Cluster C-1) VH: QSLGESRGRLVTPDETLTLTCTVSGIDLSSNAMSWVRQAPGEGLEWIGTINTGGRAYYASWAKGRFTISRTSTTVDLKMTSLTTEDTATYFCARERYSDGRAYDIWGPGTLVTISS VL: SFVLTQPASVQVNLGQTVSLTCTADTLSRRYASWYQQKPGQAPVLLIYTDSNRPSGIPDRFSGSSSGNTATLTISGAQAGDEADYYCATDDGSGSIYQYVFGGGTQLTVTG | 1160 | 98.4% | – | – | no binding (tested: 150 ng IgG1 per well) | –
HW-101 chimeric rabbit-human IgG1 LA/LA/PG (antibody, V domains shown, Fc-silenced (L234A/L235A/P329G) IgG1, lambda; Alexa Fluor 647-labeled in single-step flow cytometry; Cluster C-97) VH: QEQLVESGGRLVTPGTPLTLTCKASGFSLGKYDMSWVRQAPGKGLEWIGTIYAGSGSTWYASWAKGRFTISKTSTTVDLKMTSLTTEDTATYFCARDFLGVNSIWGPGTLVTISS VL: SFVLTQPASVQVNLGQTVSLTCTADTLSRSYASWYQQKPDQAPVLLIHRDTSRPSGVPDRFSGSNSGNTATLTISGAQAGDEADYYCATSDGSGSNFHFVFGGGTQLTVTG | – | – | 6440 | 94.3% | no binding (tested: 150 ng IgG1 per well) | –
HW-1 chimeric rabbit-human IgG1 LA/LA/PG (antibody, V domains shown, Fc-silenced (L234A/L235A/P329G) IgG1, lambda; Alexa Fluor 647-labeled in single-step flow cytometry; Prototype of cluster C-1) VH: QSLEESGGGLFKPTDTLTLTCTASGFSLGSSYAISWVRQAPGKELEWIGTIDSGRAYYARWAKSRSTITRNTNENTVTLKMTSLTAADTATYFCARDLIPTYSQDIWGPGTLVTISS VL: SFVLTQPASVQVNLGQTVSLTCTADTLSRRYASWYQQKPGQAPVLLIYRDTSRPSGVPDRFSGSSSGNTATLTISGAQAGDEADYYCATSDGSGNSYQYVFGGGTQLTVTS | 1140 | 98.2% | – | – | no binding (tested: 150 ng IgG1 per well) | –
HW-8 chimeric rabbit-human IgG1 LA/LA/PG (antibody, V domains shown, Fc-silenced (L234A/L235A/P329G) IgG1, kappa; Alexa Fluor 647-labeled in single-step flow cytometry; Cluster C-45) VH: QSLEESGGRLVTPGTPLTLTCTVSGFSLSSYAMSWVRQAPGKGLEWIGAISTGGSTTYASWAKGRFTISKTSSTTVDLKMTSLTTEDTATYFCVRHFRLWGPGTLVTISS VL: QVLTQTPSSVSAAVGGTVTIKCQASQSIGSALAWFQQKPGQRPKLLIYRASNLASGVPSRFKGSGSGTEFALTISGVQREDAATYYCLGGAAAVWAFGAGTNVEIKR | – | – | – | – | no binding (tested: 150 ng IgG1 per well) | –
TH9-0022 (antibody, human IgG1, kappa, L234A L235A, V domains shown, also called TH9-022; negative control) VH: QSLEESGGRLVTPGTPLTLTCTVSGFSLSSYAMNWVRQAPGKGLEWIGIINSYGSTYYASWAKGRFTISKTSTTVDLKITSPTTEDTATYFCARVTYDSYGYGYAPYGMDLWGPGTLVTVSS VL: LVMTQTPSSTSNAVGGTVTIKCQASQSIGNVLAWYQQKPGQPPKLLIYAASTLASGVPSRVGGSRSGTEYTLTISGVQREDAATYYCLGSDSDSDIAFGGGTELEILR | – | – | 483 | 2.62% | no binding (tested: 150 ng IgG1 per well) | no binding (tested: 150 ng IgG1 per well)
HW-81 chimeric rabbit-human IgG1 LA/LA/PG (antibody, V domains shown, Fc-silenced (L234A/L235A/P329G) IgG1, lambda; Alexa Fluor 647-labeled in single-step flow cytometry; Cluster C-45) VH: QKQLVESGGGLVTPGGTLTLTCTVSGFSLSSNGVSWVRQAPGKGLEYIGLIRSIGSTYYATWAKGRFTISKTSTTVDLKITSPTTEDTATYFCARGGYRNGFKLWGPGTLVTVSS VL: QPVLTQSPSVSAALGASAKLTCTLSSAHKTYYIEWYQQQHPGKAPRYLMQLQSDGSYTKGTGVPDRFSGSSSGADRYLIISSVQAEDEADYICGVIDSAVYVFGGGTQLTVTG | – | – | – | – | no binding (tested: 150 ng IgG1 per well) | –
